These sequences were tested against HLA-A*02:01 (assay: IEDB peptide-MHC binding, cellular MHC/competitive/fluorescence; ≥ and ≤ were set here for values at or beyond the usual limits of such assays). Conditions: source organism: Influenza A virus.
ATAGLTHMMI was tested, and the IC50 was 12.1 µM. Work on GLIYNRMGA yielded an IC50 of 16.7 µM.

Same assay, conditions: source organism: Mammarenavirus brazilense
Work on LSNCVHPAV yielded an IC50 of 12.2 µM.

Same assay, conditions: source organism: Mammarenavirus choriomeningitidis
ALMDCIIFES gave an IC50 of 6.23 µM. With LNMFVSDQV the IC50 was 5.76 µM.

Same assay, conditions: source organism: Vaccinia virus WR
Work on AVKFAEESYT yielded an IC50 of 7.83 µM. DVNSVQFSIL gave an IC50 of 6.66 µM. Work on EATFIDVHI yielded an IC50 of 10.7 µM. ELAYYNSCML showed an IC50 of 12.5 µM. ELIDVLKTRL showed an IC50 of 5.43 µM. Work on ETMYLTMKAI yielded an IC50 of 6.58 µM. With FVNFNSVKNL the IC50 was 8.72 µM. IAIFNNRNLA gave an IC50 of 6.3 µM. ILKDPRIASI was tested, and the IC50 was 5.03 µM. In the case of ITRLEVIGLT, the IC50 is reported as 6.47 µM. Sequence IVFGIYKDNL has an IC50 of 5.46 µM. KINEMVDELV gave an IC50 of 26.4 µM. KTPDYPLIDI was tested, and the IC50 was 5.55 µM. With KTVKNVDII the IC50 was 8.73 µM. LITLILSNKL gave an IC50 of 7.66 µM. In the case of LTGTFVTAFI, the IC50 is reported as 5.05 µM. LTSVDIETAI gave an IC50 of 6.73 µM. For LVAEHRFENM, the IC50 was ≥ 70 µM. LVFNSISARA was tested, and the IC50 was 15.9 µM. LVKESMASL showed an IC50 of 14.3 µM. In the case of NASKTINALV, the IC50 is reported as 8.46 µM. NIKISLNEIL gave an IC50 of 9.63 µM. With NITTLLNET the IC50 was 39.2 µM. In the case of NITTLLNETA, the IC50 is reported as 5.68 µM. PASISSVLTI gave an IC50 of 5.91 µM. In the case of PLHIVCSKT, the IC50 is reported as 7.94 µM. RQDYRRSINV gave an IC50 of 10.2 µM. Sequence SAEVERLMEL has an IC50 of 7.91 µM. SAVFKDSFL was tested, and the IC50 was 6.06 µM. In the case of SIAMLKSKNI, the IC50 is reported as 14 µM. Sequence SIMSMMNIT has an IC50 of 7.15 µM. Work on SIRCVKYLL yielded an IC50 of 7.82 µM. STAEQLSKYV gave an IC50 of 8.21 µM. STFNMWREIL was tested, and the IC50 was 6 µM. TITTFIPISA showed an IC50 of 9.69 µM. TIVSRSSRGV gave an IC50 of 11.3 µM. For TTNNLLEQL, the IC50 was 40.6 µM. For YAGTIKESL, the IC50 was 21.1 µM. With YAGTIKESLL the IC50 was 21.9 µM. With YIESKAKQL the IC50 was 9.62 µM. With YTFAISYCRA the IC50 was 10.3 µM. In the case of YVIRHVDGKI, the IC50 is reported as 8.59 µM.

Each sequence was assayed against HLA-A*68:02 in the same assay as above. Conditions: source organism: Hepacivirus hominis.
With ALDCQIYGA the IC50 was ≥ 70 µM. Work on ALLRMCALV yielded an IC50 of 6.49 µM. For ALLSCLTTPA, the IC50 was ≥ 70 µM. With LLGCIITSL the IC50 was ≥ 70 µM. MMMNWSPTT was tested, and the IC50 was 17.9 µM.

Same assay, conditions: source organism: Influenza A virus
AIMDKNIML showed an IC50 of 13 µM. With ALQLLLEV the IC50 was ≥ 70 µM. AMDSNTLEL was tested, and the IC50 was ≥ 70 µM. Sequence GLISLILQI has an IC50 of 12.4 µM. GLIYNRMGA was tested, and the IC50 was ≥ 70 µM. With ILGFVFTL the IC50 was ≥ 70 µM. ILGFVFTLTV showed an IC50 of 5.02 µM. RLIDFLKDV was tested, and the IC50 was 31.5 µM.

Same assay, conditions: source organism: SARS-CoV1
With AIYVFCISL the IC50 was 5.47 µM. In the case of ALDGVLSTFV, the IC50 is reported as 5.2 µM. Sequence ALLADKFPV has an IC50 of 12.9 µM. Sequence ALLFLMSFT has an IC50 of 16 µM. Work on AMWLLLLSI yielded an IC50 of 27.7 µM. For LMYKGLPWNV, the IC50 was 5.4 µM.

Same assay, conditions: source organism: Vaccinia virus WR
AAVTLNRIKI was tested, and the IC50 was 5.98 µM. ALALEQYGI gave an IC50 of 40.4 µM. For ALCKVTVPT, the IC50 was ≥ 70 µM. ALEQYGIENT showed an IC50 of 21.8 µM. ALLSCIRNA was tested, and the IC50 was ≥ 70 µM. Sequence KVDDTFYYV has an IC50 of 45.5 µM. VLPFDIKYI gave an IC50 of 9.87 µM.

These sequences were tested against HLA-A*02:01 (assay: IEDB peptide-MHC binding, purified MHC/competitive/radioactivity; ≥ and ≤ were set here for values at or beyond the usual limits of such assays). Conditions: source organism: Hepacivirus hominis.
ALDCQIYGA gave an IC50 of 0.143 µM. ALLRMCALV was tested, and the IC50 was 0.034 µM. In the case of ALLSCLTTPA, the IC50 is reported as 0.161 µM.

Same assay, conditions: source organism: Influenza A virus
AIMDKNIML showed an IC50 of 0.075 µM. With ILGFVFTL the IC50 was 0.0012 µM.

Same assay, conditions: source organism: SARS-CoV1
In the case of AIYVFCISL, the IC50 is reported as 0.119 µM. For ALDGVLSTFV, the IC50 was 0.028 µM. ALLADKFPV was tested, and the IC50 was 0.0017 µM. ALLFLMSFT was tested, and the IC50 was 0.406 µM. YVVVHGYFT showed an IC50 of 1.07 µM.

Same assay, conditions: source organism: Vaccinia virus WR
Work on AAVTLNRIKI yielded an IC50 of 2.33 µM. ALALEQYGI showed an IC50 of 0.03 µM. In the case of ALEQYGIENT, the IC50 is reported as 1.45 µM. For ALLSCIRNA, the IC50 was 0.023 µM.

These sequences were tested against HLA-A*02:02 in the same assay as above. Conditions: source organism: Hepacivirus hominis.
For ALDCQIYGA, the IC50 was 1.59 µM. With ALLRMCALV the IC50 was 0.083 µM. For ALLSCLTTPA, the IC50 was 0.439 µM. In the case of LLGCIITSL, the IC50 is reported as 0.079 µM. In the case of MMMNWSPTT, the IC50 is reported as 0.311 µM.

Same assay, conditions: source organism: Influenza A virus
In the case of AIMDKNIML, the IC50 is reported as 0.153 µM. With AMDSNTLEL the IC50 was 0.254 µM. In the case of ATAGLTHMMI, the IC50 is reported as 0.636 µM. Sequence GLISLILQI has an IC50 of 0.027 µM. Sequence RLIDFLKDV has an IC50 of 0.016 µM.

Same assay, conditions: source organism: Mammarenavirus brazilense
In the case of LSNCVHPAV, the IC50 is reported as 0.427 µM.

Same assay, conditions: source organism: Mammarenavirus choriomeningitidis
ALMDCIIFES was tested, and the IC50 was 0.0021 µM. With LNMFVSDQV the IC50 was 0.018 µM.

Same assay, conditions: source organism: SARS-CoV1
AIYVFCISL gave an IC50 of 0.143 µM. For ALDGVLSTFV, the IC50 was 0.0033 µM. ALLADKFPV showed an IC50 of 0.029 µM. ALLFLMSFT gave an IC50 of 2.83 µM. With AMWLLLLSI the IC50 was 0.357 µM. LMYKGLPWNV was tested, and the IC50 was 0.0018 µM. YVVVHGYFT showed an IC50 of 0.342 µM.

Same assay, conditions: source organism: Vaccinia virus WR
AAVTLNRIKI showed an IC50 of 0.83 µM. Work on ALALEQYGI yielded an IC50 of 0.00069 µM. ALCKVTVPT was tested, and the IC50 was 0.11 µM. ALEQYGIENT was tested, and the IC50 was 3.15 µM. Work on ALLSCIRNA yielded an IC50 of 0.12 µM. AVKFAEESYT gave an IC50 of 1.76 µM. With DVNSVQFSIL the IC50 was 2.27 µM. With EATFIDVHI the IC50 was 1.66 µM. ELAYYNSCML was tested, and the IC50 was 1.87 µM. ELIDVLKTRL showed an IC50 of 0.262 µM. Sequence ETMYLTMKAI has an IC50 of 1.32 µM. Sequence FVNFNSVKNL has an IC50 of 2.02 µM. IAIFNNRNLA showed an IC50 of 3.35 µM. In the case of ILKDPRIASI, the IC50 is reported as 3.16 µM. ITRLEVIGLT showed an IC50 of 2.21 µM. Sequence IVFGIYKDNL has an IC50 of 0.187 µM. KINEMVDELV showed an IC50 of 0.587 µM. KTPDYPLIDI was tested, and the IC50 was 1.12 µM. KTVKNVDII was tested, and the IC50 was 0.607 µM. LITLILSNKL showed an IC50 of 0.225 µM. Sequence LTGTFVTAFI has an IC50 of 0.672 µM. LTSVDIETAI gave an IC50 of 0.509 µM. LVAEHRFENM showed an IC50 of 2.05 µM. Sequence LVFNSISARA has an IC50 of 1.27 µM. With LVKESMASL the IC50 was 1.12 µM. For NASKTINALV, the IC50 was 0.765 µM. NIKISLNEIL gave an IC50 of 0.705 µM. In the case of NITTLLNET, the IC50 is reported as 1.3 µM. NITTLLNETA gave an IC50 of 0.218 µM. With PASISSVLTI the IC50 was 1.35 µM. PLHIVCSKT was tested, and the IC50 was 0.997 µM. In the case of RQDYRRSINV, the IC50 is reported as 1.01 µM. Work on SAEVERLMEL yielded an IC50 of 1.28 µM. Sequence SAVFKDSFL has an IC50 of 0.231 µM. SIAMLKSKNI showed an IC50 of 1.09 µM. For SIMSMMNIT, the IC50 was 4.97 µM. With SIRCVKYLL the IC50 was 0.107 µM. Work on STAEQLSKYV yielded an IC50 of 1.06 µM. For STFNMWREIL, the IC50 was 3.12 µM. Sequence TITTFIPISA has an IC50 of 4.06 µM. TIVSRSSRGV showed an IC50 of 4.7 µM. TTNNLLEQL showed an IC50 of 0.122 µM. Sequence VLPFDIKYI has an IC50 of 0.135 µM. YAGTIKESL showed an IC50 of 2.07 µM. YAGTIKESLL was tested, and the IC50 was 1.02 µM. Work on YIESKAKQL yielded an IC50 of 0.144 µM. YTFAISYCRA gave an IC50 of 0.325 µM. YVIRHVDGKI was tested, and the IC50 was 0.621 µM.

What follows are sequences tested against HLA-A*02:03 in the same assay as above. Conditions: source organism: Hepacivirus hominis.
For ALDCQIYGA, the IC50 was 1.8 µM. ALLRMCALV showed an IC50 of 0.065 µM. With ALLSCLTTPA the IC50 was 0.211 µM. LLGCIITSL was tested, and the IC50 was 0.121 µM. Work on MMMNWSPTT yielded an IC50 of 0.106 µM.

Same assay, conditions: source organism: Influenza A virus
With AIMDKNIML the IC50 was 0.802 µM. For AMDSNTLEL, the IC50 was 0.524 µM. Work on ATAGLTHMMI yielded an IC50 of 1.06 µM. For GLISLILQI, the IC50 was 0.0054 µM. Work on RLIDFLKDV yielded an IC50 of 0.0073 µM.

Same assay, conditions: source organism: Mammarenavirus brazilense
LSNCVHPAV gave an IC50 of 1.1 µM.

Same assay, conditions: source organism: Mammarenavirus choriomeningitidis
For ALMDCIIFES, the IC50 was 0.016 µM. With LNMFVSDQV the IC50 was 0.88 µM.

Same assay, conditions: source organism: SARS-CoV1
AIYVFCISL gave an IC50 of 0.201 µM.
